Results taken from US20220184120A1 (MINERVA BIOTECHNOLOGIES, published 2022).
Residue numbers refer to the chain shown, from its start.

T1: N+9/C-9 peptide (9 amino acids added onto the N-terminus and 9 deleted from the C-terminus of PSMGFR)
T1 peptide: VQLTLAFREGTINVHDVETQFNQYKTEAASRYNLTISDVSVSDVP

T2: C-10 peptide (PSMGFR minus 10 amino acids from the C-terminus)
T2 construct: also called C-10 PSMGFR; PSMGFR C-10
T2 peptide: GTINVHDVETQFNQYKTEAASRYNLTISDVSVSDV

T3: N-10 peptide (PSMGFR minus 10 amino acids from the N-terminus)
T3 construct: also called N-10 PSMGFR; PSMGFR N-10
T3 peptide: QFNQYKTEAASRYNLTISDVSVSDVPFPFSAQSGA

T4: NME7-AB (recombinant) (Homo sapiens (Human), UniProt Q9Y5B8 92-376)
T4 construct: the entry ends in a His tag; also called NM23-H7
T4 sequence: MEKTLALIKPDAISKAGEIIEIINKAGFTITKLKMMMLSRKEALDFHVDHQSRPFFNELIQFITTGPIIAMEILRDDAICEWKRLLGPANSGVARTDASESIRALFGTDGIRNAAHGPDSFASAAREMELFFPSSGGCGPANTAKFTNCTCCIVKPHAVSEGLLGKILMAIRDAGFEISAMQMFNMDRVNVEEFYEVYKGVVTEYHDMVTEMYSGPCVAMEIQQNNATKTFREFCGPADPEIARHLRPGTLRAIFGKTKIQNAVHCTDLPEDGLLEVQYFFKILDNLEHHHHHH

T5: N+20/C-27 peptide (20 amino acids added onto the N-terminus and 27 deleted from the C-terminus of PSMGFR)
T5 peptide: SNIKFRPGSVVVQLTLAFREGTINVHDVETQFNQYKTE

B1: 28F9 mouse monoclonal antibody (antibody, V domains shown)
VH: QVQLQQPGAELVQPGASVKLSCKASGYTFTGYFLYWVKQRPGHGLEWIGGIHPSNGDTDFNEKFKNKATLTVDISSSTAYMQLSSLTSEDSAVYYCTLLIGVYWGQGTTLTVSS
VL: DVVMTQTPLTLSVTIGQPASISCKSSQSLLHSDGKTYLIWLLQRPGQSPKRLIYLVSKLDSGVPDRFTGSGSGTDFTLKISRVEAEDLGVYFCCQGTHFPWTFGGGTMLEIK
notes: raised against PSMGFR; also called MN-28F9; anti-PSMGFR antibody 28F9
B2: 18G12 mouse monoclonal antibody (antibody, V domains shown)
VH: B1 VH with P7S, Q13K, H43Q, H52N, S54D, D57G, T58I, K65R, I74K, V102N
VL: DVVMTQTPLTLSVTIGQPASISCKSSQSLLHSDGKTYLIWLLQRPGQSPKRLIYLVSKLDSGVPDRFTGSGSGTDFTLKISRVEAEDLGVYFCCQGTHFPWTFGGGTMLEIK
notes: raised against PSMGFR; also called MN-18G12; anti-PSMGFR antibody 18G12
B3: PSMGFR peptide (Primary Sequence of the MUC1 Growth Factor Receptor) (peptide)
peptide: GTINVHDVETQFNQYKTEAASRYNLTISDVSVSDVPFPFSAQSGA
notes: synthetic peptide immobilised on ELISA plates; also called MUC1* peptide; MUC1* extra cellular domain peptide
B4: B2 mouse monoclonal antibody (antibody, V domains shown)
VH: EVVLVESGGGLVEPGGSLKLSCVASGFAFSTFAMSWIRQTPEKRLEWVAAISNGGGYTYYPDTLKGRFSISRDNAKNTLYLQMSSLRSEDTAVYYCARRYYDLYFDLWGRGTSLIVSS
VL: DILMTQTPLSLPVSLGDQASISCRSSQNIVHSNGNTYLEWYLQKPGQSPKLLIYKVSNRFSGVPDRFSGSGSGTDFTLKISRVEAEDLGVYYCFQDSHVPLTFGAGTRLELK
notes: raised against PSMGFR; built from framework and CDR entries
B5: 31A1 mouse monoclonal antibody (antibody, V domains shown)
VH: QVQLQQSGAELAKPGASVKMSCKASGYTFTSYWMHWVKQRPGQGLEWIGYINPSTGYTEYNQKFKDKATLTADKSSSTAYMQLSSLTSEDSAVYYCARAYIDYWGQGTTLTVSS
VL: B4 VL with I2V, I21F, N28S, S81N, D96V, V99F, L101W, A105G, R108K, L111I
notes: raised against N+20/C-27; also called N+20/C-27 antibody 31A1
B6: 5C6F3 mouse monoclonal antibody (antibody, V domains shown)
VH: EVMLVESGGGLVKPGGSLKLSCAASGFTFSTYAMSWVRQTPEKRLEWVAAISNGGGYTYYPDSLKGRFTISRDNAKNTLYLQMSSLRSEDTATYYCARRYYDHYFDYWGQGTALTVSS
VL: B4 VL with I2V, N28T, R108K
notes: raised against PSMGFR; also called MN-5C6F3; anti-PSMGFR antibody 5C6F3
B7: B7 mouse monoclonal antibody (antibody, V domains shown)
VH: EVQVVESGGDLVKPGGSLKLSCAASGFTFSRYGMSWVRQTPDKRLEWVATISSGGTYIYYPDSVKGRFTISRDNAKNTLYLQMSSLKSEDTAMYYCARDNYGSSYDYAMDYWGQGTSVTVSS
VL: B4 VL with I2V, N28T, R108K
notes: as for B4
B8: H11 mouse monoclonal antibody (antibody, V domains shown)
VH: B4 VH with S69T, R110Q
VL: B4 VL
notes: as for B4
B9: 25E6 mouse monoclonal antibody (antibody, V domains shown)
VH: EVQLVESGGDLVKPGGSLKLSCAASGFTFSSYGMSWVRQTPDKRLEWVATISNGGRHTFYPDSVKGRFTISRDNAKNTLYLQMSSLKSEDTAMYLCVRQTGTEGWFAYWGQGTLVTVSA
VL: not shown
notes: raised against PSMGFR; also called MN-25E6; anti-PSMGFR antibody 25E6
B10: B12 mouse monoclonal antibody (antibody, V domains shown)
VH: QAQLKESGPGLVAPSQSLSITCTVSGFSLTSYGVHWVRQPPGKGLEWLGVIWPGGSTNYNSTLMSRMRIIKDNSKSQVFLKMNSLQIDDTAMYYCARDRTPRVGAWFAYWGQGTLVTVSA
VL: IIVLTQSPASLAVSLGQRATISCRASESVATYGNNFMQWYQQKPGQPPKLLIYLASTLDSGVPARFSGSGSRTDFTLTIDPVEADDAATYYCQQNNEDPPTFGGGTKLEIK
notes: as for B4
B11: 8C7F3 mouse monoclonal antibody (antibody, V domains shown)
VH: B6 VH
VL: B10 VL
notes: as for B4
B12: 29H1 mouse monoclonal antibody (antibody, V domains shown)
VH: EVKLEESGGGLVQPGGSMKLSCAASGFTFSDAWMDWVRQSPEKGLEWVAEIRSKATNHATYYAESVKGRFTISRDDSKSSVYLQMNSLRAEDTGIYYCTPLLYGFAYWGQGTLVTVSA
VL: DVVMTQTPLSLPVSLGDQASISCRSGQSLVHSNGHTYLHWYLQKPGQSPRLLIYKVSNRFSGVPDRFSGSGSRADFTLKISRVEAEDLGVYFCSQTTHVPWTFGGGTKLEIK
notes: raised against N+20/C-27; also called N+20/C-27 antibody 29H1
B13: 32C1 mouse monoclonal antibody (antibody, V domains shown)
VH: EVKLEESGGGLVQSGGSMKLSCVASGFTFSNYWMNWVRQSPEKGLEWVAEIRLKSNNYAIHYAESVKGRFTISRDDSKSSVYLQMNNLRAEDTGIYYCTRVPGLDAYWGQGTLVTVSA
VL: B12 VL with G26S, H35N, R50K, R73G, A74T, R82S, T96I, W101Y, K108N
notes: raised against N+20/C-27; also called N+20/C-27 antibody 32C1
B14: 3C2B1 mouse monoclonal antibody (antibody, V domains shown)
VH: EVMLVESGGGLVKPGGSLKLSCAASGITFSTYTMSWVRQTPEKRLEWVATISTGGDKTYYSDSVKGRFTISRDNAKNNLYLQMSSLRSEDTALYYCARGTTAMYYYAMDYWGQGTSVTVSS
VL: DIVLTQSPASLAVSLGQRATISCRASKSISTSDYNYIHWYQQKPGQPPKLLIYLASNLESGVPARFSGSGSGTDFTLNIHPVEEEDAATYYCQHSRELPLTFGAGTKLELK
notes: raised against PSMGFR; also called MN-3C2B1; anti-PSMGFR antibody 3C2B1
B15: B9 mouse monoclonal antibody (antibody, V domains shown)
VH: B7 VH
VL: QIVLTQSPAIMSASPGEEVTLTCSASSSVSYMHWFQQRPGTSPKLWIYTTSNLASGVPARFSGSGSGTSYSLTISRMEAEDAATYYCQQRSSYPFTFGSGTKLEIK
notes: as for B4

How the values were obtained:
[1] = target: T1, N+9/C-9 peptide (9 amino acids added …); experiment: ELISA (FIG. 64A)
[2] = target: B3; experiment: ELISA
[3] = target: T2, C-10 peptide (PSMGFR minus 10 amino …); experiment: ELISA
[4] = target: T3, N-10 peptide (PSMGFR minus 10 amino …); experiment: ELISA (FIG. 64)
[5] = target: T4, NME7-AB (recombinant); experiment: ELISA (FIG. 2A)
Description: FIGS. 2A-2I show results of ELISA assays. MUC1* peptides PSMGFR, PSMGFR minus 10 amino acids from the N-terminus aka N−10, or PSMGFR minus 10 amino acids from the C-terminus, aka C−10 are immobilized on the plate and the following are assayed for binding: NME7-AB (FIG. 2A), MN-C2 monoclonal antibody (FIG. 2B), MN-E6 monoclonal antibody (FIG. 2C), or dimeric NME1 (FIG. 2D). […] MUC1* peptides PSMGFR minus 10 amino acids from the N-terminus aka N−10, or PSMGFR minus 10 amino acids from the C-terminus, aka C−10, are immobilized on the plate and the following are assayed for binding: MN-C3 (FIG. 2E) and MN-C8 (FIG. 2F).

[6] = target: T3, N-10 peptide (PSMGFR minus 10 amino …); experiment: ELISA (FIG. 201B)
Description: (§1) FIG. 201A-201C show graphs of ELISA assays to determine the binding of another set of antibodies generated by immunizing animals with the PSMGFR peptide. […] F3, B12, B2, B7, B9, 8C7F3 and H11 all bound to the PSMGFR peptide and to the N−10 peptide.
(§2) This same ELISA assay was performed on the antibodies of the invention (FIG. 64-66 and FIG. 201). Note that only 20A10 exactly matches the binding profile of MNC2 and MNE6. 25E6, 28F9 and 18G12 are all able to bind to the N−10 peptide. 18B4 is the only antibody raised against the PSMGFR peptide that requires the 10 most N-terminal amino acids of the peptide. The color of the bars for each antibody in the ELISA graph are color coded to match the deductive cognate sequence, or a portion thereof, of that antibody. In addition, another set of antibodies was assayed by ELISA (FIG. 201). Of this set, B12, B2, B7, B9, 8C7F3, and H11 bound to the PSMGFR peptide, bound to the N−10 peptide, but not to the C−10 peptide (FIG. 201). Although these antibodies were raised against the N+20/C−27 peptide, all but one, 45C11, still bind to the PSMGFR peptide, albeit at the N-terminal portion of PSMGFR.

[7] = target: T2, C-10 peptide (PSMGFR minus 10 amino …); experiment: ELISA (FIG. 201C)
Description: as §1, §2

[8] = target: B3; experiment: ELISA (FIG. 201A)
[9] = target: B3; experiment: ELISA (FIG. 65)
[10] = target: T5, N+20/C-27 peptide (20 amino acids added …); experiment: ELISA
[11] = target: T3, N-10 peptide (PSMGFR minus 10 amino …); experiment: ELISA

Does B1 bind [1]?
Result: binds

Does B1 bind [2]?
Result: binds

Does B1 bind [3]?
Result: binds

Does B1 bind [4]?
Result: binds

Does B2 bind [1]?
Result: binds

Does B2 bind [2]?
Result: binds

Does B2 bind [3]?
Result: binds

Does B2 bind [4]?
Result: binds

Does B3 bind [5]?
Result: binds

Does B4 bind [6]?
Result: binds

Does B4 bind [7]?
Result: no binding

Does B4 bind [8]?
Result: binds

Does B5 bind [9]?
Result: binds

Does B5 bind [10]?
Result: binds

Does B5 bind [11]?
Result: no binding

Does B5 bind [3]?
Result: binds

Does B6 bind [2]?
Result: binds

Does B6 bind [11]?
Result: binds

Does B7 bind [7]?
Result: no binding

Does B8 bind [7]?
Result: no binding

Does B9 bind [1]?
Result: binds

Does B9 bind [2]?
Result: binds

Does B9 bind [4]?
Result: binds

What does the source list for B10?
binding result [6]: binds; binding result [7]: no binding; binding result [8]: binds

Does B11 bind [7]?
Result: no binding

Does B12 bind [9]?
Result: binds

Does B12 bind [10]?
Result: binds

Does B12 bind [11]?
Result: no binding

Does B12 bind [3]?
Result: binds

What does the source list for B13?
binding result [9]: binds; binding result [10]: binds; binding result [11]: no binding; binding result [3]: binds

Which results are given for B14?
binding result [2]: binds; binding result [11]: binds; binding result [3]: no binding

Which results are given for B15?
binding result [6]: binds; binding result [7]: no binding; binding result [8]: binds
